Measurements from paper PMC2189183.
Where two headings read alike, the source gives them in different places.

Tests used:
Assay in all cases: conjugate formation
[1] = biological target: HLA class I antigens of JY cells (human (endogenous in JY)) (UniProt P04439)
[2] = biological target: HLA class I antigens of JY cells (human (endogenous in JY)) (UniProt P04439); remark: listed apart in the source
[3] = biological target: HLA class I antigens of JY cells (human (endogenous in JY)) (UniProt P04439); remark: listed apart in the source

Chain of UniProt P04439 (P04439 whole entry, looked up): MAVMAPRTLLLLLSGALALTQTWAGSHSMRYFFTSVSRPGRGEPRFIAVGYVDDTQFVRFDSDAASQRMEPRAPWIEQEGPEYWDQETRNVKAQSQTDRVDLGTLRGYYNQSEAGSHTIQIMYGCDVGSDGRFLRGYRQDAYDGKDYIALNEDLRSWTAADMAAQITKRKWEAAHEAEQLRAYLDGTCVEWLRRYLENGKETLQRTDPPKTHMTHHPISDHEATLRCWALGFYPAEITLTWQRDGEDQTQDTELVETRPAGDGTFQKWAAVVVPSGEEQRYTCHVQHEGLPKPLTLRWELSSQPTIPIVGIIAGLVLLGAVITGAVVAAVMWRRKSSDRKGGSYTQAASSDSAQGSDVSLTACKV

Work on “CD8 (human CD8 expressed in the murine T cell hybridoma 16.T8-15) (from UniProt P01732 22-235) (receptor)” yielded a percent conjugates [1] of 42%, a percent conjugates [2] of 22% and a percent conjugates [3] of 29%.
